Consider 6 molecules from patent publication US20170224833A1, “SELF-ASSEMBLING MOLECULES THAT ACCUMULATE IN ACIDIC TUMOR MICROENVIRONMENTS” (OHIO STATE INNOVATION FOUNDATION, priority 2014, published 2017).

Residues, ends and D or L forms follow the SMILES beside them. *: point of attachment. Palmitoyl = CCCCCCCCCCCCCCCC(=O)*

A short description of data set [1]: Circular dichroism (CD) spectroscopy of pH-triggered self-assembly transition in 150 mM NaCl, 2.2 mM CaCl2. The class given is physicochemical. To be noted: for CD Transition pH: random coil to β-sheet; for secondary structure by CD: irrespective of concentration and pH (pH 5-10). Here is the method:
The target PA concentration (10 μM) was below the detectable limit of conventional techniques to determine the morphology such as cryoTEM and small-angle X-ray scattering. Consequently, circular dichroism (CD) spectroscopy was initially used to characterize the morphology of these PAs at various pH values. PA1 was the first molecule synthesized that underwent a self-assembly transition in the desired pH range of 6.6-7.4 at 10 μM PA concentration, in 150 mM NaCl and 2.2 mM CaCl2 (FIG. 2A) (Goldberger, J. E., et al. Angew. Chem. Int. Ed. 2011 50:6292-95). […] The transition pH from random coil to β-sheet occurred at a pH of 6.6. The transition pH was defined as the value at which the ellipticity at 205 nm rises to zero, followed by the appearance of a minimum at 218-220 nm.
Measurements were done on a Jasco-815 Circular Dichroism spectrometer using 1 cm path length quartz cuvettes. 10 μM solutions of peptide amphiphiles were prepared in 150 mM NaCl and 2.2 mM CaCl2 by dilution from a concentrated PA stock (0.5-1 mM, pH 9). Double de-ionized Milli-Q water was used for preparing all solutions. The solutions were then heated at 80° C. for 30 minutes in a water bath and gradually cooled to room temperature. An Accumet XL15 pH meter (Fisher Scientific) coupled with an Orion Ross Ultra semi-micro electrode (8103BNUWP, Thermo Scientific) was used to adjust the pH of the solution to the desired value followed by collection of the CD spectra Each trace shown was averaged over 3 accumulations and was baseline subtracted using aqueous solutions containing salts only. All spectra are cut-off below 205 nm due to absorption by NaCl and CaCl2.
Measurements were done on a Jasco-815 Circular Dichroism spectrometer using 0.5-1 cm path length quartz cuvettes. 500-10 μM of either pure PA or PA mixtures were prepared in 150 mM NaCl and 2.2 mM CaCl2 (and 1.8 mM 20 kDa PEG in select samples) by dilution from a concentrated PA stock (0.5-1 mM, pH 9). Double de-ionized Milli-Q water was used for preparing all solutions. The solutions were then heated at 80° C. for 30 minutes in a water bath and gradually cooled to room temperature. An Accumet XL15 pH meter (Fisher Scientific) coupled with an Orion Ross Ultra semi-micro electrode (8103BNUWP, Thermo Scientific) was used to adjust the pH of the solution to the desired value followed by collection of the CD spectra. Each trace shown was averaged over 3 accumulations and was baseline subtracted using aqueous solutions containing salts only. All spectra are cut-off below 200 nm due to absorption by NaCl and CaCl2. The same procedure was followed for the salt control samples with 3.0 and 4.0 mM CaCl2.
Self-assembly behavior is known to be extremely sensitive to minor changes in monomer structure and presence of impurities. […] CAC measurements via the pyrene 1:3 method (Das, D. et al. J. Colloid Interface Sci. 2008, 327:198) were used to ascertain the single molecule to spherical micelle transitions at varying pH values (FIGS. 24A-24C). CD Spectroscopy was used to determine the pH points at which different concentrations (10-500 μM) of the PA molecules transitioned from a random coil to a β-sheet secondary structure (FIGS. 25A-25C). It has been previously shown that the random coil and β-sheet structures correspond to spherical micellar/isolated molecule and nanofiber morphologies respectively (Ghosh, A. et al. J. Am. Chem. Soc. 2012, 134:3647). The CD transition point was defined to be the pH value at which the ellipticity at 200 nm rose from a negative value (random coil) to zero accompanied by the appearance of a minimum at 218-220 nm. The addition of PA66 shifted the CD transition pH to more basic values by ˜0.6 pH units. […] This ˜0.6 pH shift in CD transition pH to more basic values were also observed when 1.5% of PA67 was added to PA65. […]

Data set [2] in a line: Transmission electron microscopy (TEM) of self-assembled morphology. The class given is physicochemical. To be noted: for average diameter of isolated nanofibers: 0.5 mM; for fiber diameter: pH 8.0 (100 μM, FIG. 40). On the procedure: TEM images were obtained using solutions of either 10 μM or 0.5 mM peptide amphiphile concentration, as well as 150 mM NaCl and 2.2 mM CaCl2 in Milli-Q water. The solutions were first heated at 80° C. for 30 minutes in a water bath and then gradually cooled to room temperature. This was followed by pH adjustment using either HCl or NaOH. 5 μL of this solution was pipetted onto a Carbon Formvar grid (Electron Microscopy Sciences) and allowed to sit for 2 minutes before being wicked dry using filter paper. For the 10 μM experiments that were performed to determine the time dependence of nanofiber formation, solutions were dropcast onto the grid within three minutes of pH adjustment. The samples were then negatively stained using 1 wt % uranyl acetate and imaged under a FEI Tecnai G2 Bio TWIN TEM system, operating at 100 kV. All TEM experiments were performed in triplicate, using at least three different freshly prepared solutions and grids. […]
TEM images were obtained at various concentrations and pH values, with 150 mM NaCl and 2.2 mM CaCl2 in deionized water. Solutions were heated at 80° C. for 30 minutes and gradually cooled to room temperature. Following temperature equilibration, pH adjustment was achieved using HCl or NaOH. 5 μL of this solution was pipetted onto a Carbon Formvar grid (Electron Microscopy Sciences) and allowed to sit for 2 minutes before being wicked dry using filter paper strips. The samples were negatively stained with 1 wt % uranyl acetate and imaged under a FEI Tecnai G2 Bio TWIN TEM system operating at 100 kV.
Transmission electron microscopy was employed to confirm the self-assembled morphology at different pH values and concentrations. The sample to be tested was basified to a pH of 10, stirred at 90° C. in an oil bath for 30 minutes and cooled to room temperature. The pH was then adjusted with HCl and NaOH to set the peptide solution (in 150 mM NaCl and 2.2 mM CaCl2) to a pH of either 5 or 9. Once the desired pH was reached, 5 μL of the sample was placed and spread onto a Carbon Formvar grid (Electron Microscopy Sciences) and allowed to sit for one minute before being wicked dry with filter paper. A 1 wt % uranyl acetate solution was added and spread over the grid to negatively stain the sample, and was wicked dry immediately after application. The grid was then examined by a FEI Tecnai G2 Biotwin TEM at 100 keV. The diameters of each self-assembled morphology was determined via averaging at least 30 different objects.

Where [3] appears, read: 10 μM PA, 150 mM NaCl, 2.2 mM CaCl2.

In the case of `CCCCCCCCCCCCCCCC(=O)N[C@H](C(=O)N[C@@H](C)C(=O)N[C@@H](C)C(=O)N[C@@H](C)C(=O)N[C@@H](CCC(=O)O)C(=O)N[C@@H](CCC(=O)O)C(=O)N[C@@H](CCC(=O)O)C(=O)N[C@@H](CCC(=O)O)C(N)=O)[C@@H](C)CC` [PA1] (Palmitoyl-IAAAEEEE-NH2), in data set [1] (setting [3]), the “pH above which CD shows superimposable random coil morphology” value is 6.82 and the “CD Transition pH” value came out at 6.6. Further, in data set [1] (10 μM, 150 mM NaCl, 2.2 mM CaCl2), the “time required to achieve the expected morphology after pH change” value is given as “three minutes or less”. Also, the “transition between random coil and β-sheet structure (reversibility)” value in data set [1] (10 μM, pH switched between 7.75 and 6.1, three cycles) is “rapid and reversible”. Moreover, the “pH transition point at 10 μm PA” value in data set [1] (basic to acidic transition from small molecule to cylindrical nanofiber, simulated serum environment) was 6.6. Also, the “average diameter of isolated fibers” value in data set [2] (10 μM, pH 6) was determined as 9.1±1.5 nm. Further, in data set [2] (10 μM, pH 6, grids within three minutes of pH adjustment), the “average length of isolated fibers” value was found to be 590±200 nm. In addition, the “fibers observed by TEM” value in data set [2] (10 μM, pH 8) is listed as “no fibers were present”. Moreover, the “average diameter of isolated nanofibers” value in data set [2] (pH 6.0) is recorded as 9.4±1.1 nm. Besides, the “average diameter of isolated nanofibers” value in data set [2] (pH 10.0) amounted to 9.5±1.2 nm.
Regarding `CCCCCCCCCCCCCCCC(=O)N[C@@H](C)C(=O)N[C@H](C(=O)N[C@@H](C)C(=O)N[C@@H](C)C(=O)N[C@@H](CCC(=O)O)C(=O)N[C@@H](CCC(=O)O)C(=O)N[C@@H](CCC(=O)O)C(=O)N[C@@H](CCC(=O)O)C(N)=O)[C@@H](C)CC` [PA68] (Palmitoyl-AIAAEEEE-NH2), in data set [1] (8.4 μM and above), the “morphology by CD” value is on record as “formed nanofibers across all pH values”. Moreover, in data set [2] (100 μM, pH 5.0 and 8.3), the nanofiber diameter is 9.5±0.8 nm.
Consider “Palmitoyl-AAAIEEEE-NH2 (SMILES CCCCCCCCCCCCCCCC(=O)N[C@@H](C)C(=O)N[C@@H](C)C(=O)N[C@@H](C)C(=O)N[C@H](C(=O)N[C@@H](CCC(=O)O)C(=O)N[C@@H](CCC(=O)O)C(=O)N[C@@H](CCC(=O)O)C(=O)N[C@@H](CCC(=O)O)C(N)=O)[C@@H](C)CC) [PA70]”, for which the “secondary structure by CD” value in data set [1] is “β-sheet secondary structure regardless of concentration and pH”. For the same molecule, the fiber diameter in data set [2] is listed as roughly 9.0±0.8 nm.
Take “Palmitoyl-AIAAEEEEK(DO3A:Gd)-NH2 (Palmitoyl-AIAAEEEEK(DO3A)-NH2; also: DO3A chelates Gd) [PA71]”: in data set [1], the “secondary structure by CD” value was “exclusively 3-sheet formation irrespective of concentration and pH”. In data set [2] (pH 6.6, 150 μM), this molecule showed a nanofiber length greater than 1 μm and a nanofiber width of roughly 11.3±1.1 nm. Moreover, in data set [2], the fiber diameter is reported as roughly 9.6±0.5 nm.
For “Palmitoyl-IAAAEEEEK(DO3A:Gd)-NH2 (Palmitoyl-IAAAEEEEK(DO3A)-NH2; also: DO3A chelates Gd) [PA5]”, in data set [1] (setting [3]), the “CD Transition pH” value was 5.7. For the same molecule, the “nanofiber to micelle transition pH” value was 5.7 in data set [1] (20 μM PA) and 6.0 in data set [1] (0.5 mM PA). For the same molecule, the “pH transition point at 10 μm PA” value in data set [1] (basic to acidic transition from spherical micelle to cylindrical fiber, simulated serum environment (150 mM NaC, 2.2 mM CaCl2)) is given as 5.7. The same molecule registered a nanofiber diameter in data set [2] (0.5 mM PA, pH 4) of 11.9±1.6 nm. Besides, the spherical micelle diameter in data set [2] (0.5 mM PA, pH 10) is reported as 10.0±1.2 nm.
In the case of “palmitoyl-YYAAEEEEEK(DO3A:Gd)-NH2 (Palmitoyl-YYAAEEEEEK(DO3A)-NH2; also: DO3A chelates Gd) [PA74]”, the “pH below which nanofibers form (CD morphology transition)” value in data set [1] (50 μM) is on record as 5.75. Moreover, the nanofiber diameter in data set [2] (FIG. 50: pH 5, PA74 500 μM, PA75 100 μM) is recorded as 9.7+/−1.2 nm. Further, the “morphology by TEM” value is recorded as “nanofiber morphology” in data set [2] (pH 5, PA74 500 μM, PA75 100 μM) and “spherical micelle morphology” in data set [2] (pH 9, PA74 500 μM, PA75 100 μM).
